For assay [1], the target named is 肝癌Huh-7细胞 (Huh-7癌细胞抗原; Huh-7细胞裂解蛋白). As to the kind of experiment: SPR, BIAcore T-200, 1:1 Langmuir model; binding to liver cancer Huh-7 cells. (Surface plasmon resonance follows binding to a sensor surface in real time, without labels.)
Assay [2] shares this target. As to the kind of experiment: indirect ELISA; plate coated with 2 μg/mL Huh-7 cell antigen; purified ascites antibody in 2-fold dilutions.

As usually defined, the Kd is the free concentration of one partner at which half of the binding sites on the other are occupied at equilibrium, for simple one-to-one binding. Read a low Kd as a tighter complex.

Where a chain is given by its changes, count along the chain named.

B1: 2D3单克隆抗体 (antibody, V domains shown)
VH: EVKLVESGGGLVKPGGSLKLSCAASGFTFSSAAMRWVRQIPEKRLEWVARIEEGGSAYFPDSVLVRFTISRDNARNICYLQMNSLRSDDTAMYYCARSRESPAGYFKLWGQGTTLTVSS
VL: DIVLTQSPASLAVSLGQRATISCCASESVHPYGTSLAMWYQQKPGQPPKLLIYASSRVEPGVPARFSGSGSGTDFSLNIHPVEEDDIAMYFCSSSGQVPARFGAGTKLELK
In assay [1], B1 had a Kd of 0.23 nM. Besides, in assay [2], the 抗体效价 worked out at 5.12e+06.

B2: 4D6单克隆抗体 (antibody, V domains shown)
VH: EVKLVESGGGLVKPGGSLKLSCAASGFTFSQYRMGWVRQIPEKRLEWVAEISSASSLYFPDSVKSRFTISRDNARNICYLQMNSLRSDDTAMYYCARAREADNVYFDAWGQGTTLTVSS
VL: DIVLTQSPASLAVSLGQRATISCSQSESGTYYGTSLAMWYQQKPGQPPKLLIYAASNVESGVPARFSGSGSGTDFSLNIHPVEEDDIAMYFCTASMKAPLRFGAGTKLELK
Regarding B2, the Kd in assay [1] was found to be 0.31 nM. Also, the 抗体效价 in assay [2] was determined as 5.12e+06.

B3: 6G5单克隆抗体 (antibody, part only; not given: Light chain variable region, V domains shown, part only)
VH: EVKLVESGGGLVKPGGSLKLSCAASGFTFSAYAMTWVRQIPEKRLEWVAAISPTGSLYFPGSVSGRFTISRDNARNICYLQMNSLRSDDTAMYYCARGVEADSQYFDKWGQGTTLTVSS
Regarding B3, in assay [1], the dissociation constant Kd came out at 0.34 nM. Further, the 抗体效价 in assay [2] was found to be 5.12e+06.

B4: 4D3单克隆抗体 (antibody, V domains shown)
VH: EVKLVESGGGLVKPGGSLKLSCAASGFTFSASAQSWVRQIPEKRLEWVALQSRSGSLYFPASVKQRFTISRDNARNICYLQMNSLRSDDTAMYYCARSREASGGYIDEWGQGTTLTVSS
VL: DIVLTQSPASLAVSLGQRATISCSASESGGYYGTSLMNWYQQKPGQPPKLLIYSTSNEEKGVPARFSGSGSGTDFSLNIHPVEEDDIAMYFCGQSMKRPLRFGAGTKLELK
B4 had an equilibrium dissociation constant (Kd) in assay [1] of 0.29 nM. This molecule showed a 抗体效价 in assay [2] of 5.12e+06.

B5: 6F4单克隆抗体 (antibody, V domains shown)
VH: EVKLVESGGGLVKPGGSLKLSCAASGFTFSQYASLWVRQIPEKRLEWVAAISGQGSLYFPDSVCTRFTISRDNARNICYLQMNSLRSDDTAMYYCARGAAADGGYFDTWGQGTTLTVSS
VL: DIVLTQSPASLAVSLGQRATISCSASESVEFSGTSLTRWYQQKPGQPPKLLIYASQNVEGGVPARFSGSGSGTDFSLNIHPVEEDDIAMYFCCYSMKVPPRFGAGTKLELK
In turn, B5 registered a Kd in assay [1] of 0.62 nM. The molecule also displayed a 抗体效价 in assay [2] of 2.56e+06.

B6: 3E2单克隆抗体 (antibody, V domains shown)
VH: EVKLVESGGGLVKPGGSLKLSCAASGFTFSNSAMRWVRQIPEKRLEWVAVIRAGGSLYFPDRVKSRFTISRDNARNICYLQMNSLRSDDTAMYYCARGREADGGYFDYWGQGTTLTVSS
VL: DIVLTQSPASLAVSLGQRATISCAASERREYYGTSLASWYQQKPGQPPKLLIYARSNVEYGVPARFSGSGSGTDFSLNIHPVEEDDIAMYFCGSSMKRPLRFGAGTKLELK
B6: in assay [1], the equilibrium dissociation constant (Kd) turned out to be 0.56 nM. Moreover, the 抗体效价 in assay [2] came to 2.56e+06.

B7: 5D7单克隆抗体 (antibody, V domains shown)
VH: EVKLVESGGGLVKPGGSLKLSCAASGFTFSDAAMRWVRQIPEKRLEWVASISSLISLYFPDSVESRFTISRDNARNICYLQMNSLRSDDTAMYYCARGAEASGGYFDQWGQGTTLTVSS
VL: B6 VL with A24S, R28H, R29P, A37M, S38A, R55S, Y60T, G93Q, S94V, R101D
Take B7: the dissociation constant Kd in assay [1] amounted to 0.45 nM. In addition, the 抗体效价 in assay [2] stood at 5.12e+06.

B8: 5A3单克隆抗体 (antibody, V domains shown)
VH: B6 VH with N31R, S32Y, R35S, V50A, R52S, A53S, R62S, S65G
VL: DIVLTQSPASLAVSLGQRATISCSASESCYYYGTSLAQWYQQKPGQPPKLLIYKLSNVRGGVPARFSGSGSGTDFSLNIHPVEEDDIAMYFCRQPMKVPLKFGAGTKLELK
In turn, B8 yielded a Kd in assay [1] of 0.58 nM. Also, in assay [2], the 抗体效价 came out at 2.56e+06.

For the origin of these results see patent CN112679613A.
